Laboratory results published in patent US20210246166A1 (Bayer, published 2021).
Numbered stars: 1 amine (or outer) side, 2 acyl side, 3 side chain; on linkers, the order of the positions; unused ones are H or OH. Bridge positions count the residues as written; N and C are the ends. Square brackets hold non-standard residues; d marks the D form. Ends that are not written are not given here. * marks the point of attachment. (N-Benzyl)D = (2S)-2-Amino-4-(benzylamino)-4-oxobutanecarboxylic acid, O=C(C[C@H](N[*:1])C(=O)[*:2])NCc1ccccc1; βDap = *Dap: Dap linked through its additional amino group, O=C([C@H](CN[*:1])N[*:3])[*:2]; X4 = (1S,3R)‑3‑(Amino)cyclopentanecarboxylic acid, O=C([C@H]1CC[C@@H](N[*:1])C1)[*:2]; X9 = (S)‑3‑(1-Pyrrolidine-2-yl)‑propionic acid, O=C(CC[C@@H]1CCCN1[*:1])[*:2]; X6 = (S)‑(1-Piperidin-3-yl)‑acetic acid, O=C(C[C@@H]1CCCN([*:1])C1)[*:2]; X11 = (S)‑Piperidine‑3‑carboxylic acid, O=C([C@H]1CCCN([*:1])C1)[*:2]; X14 = (2,4-dioxoimidazolidin-1-yl)acetic acid, O=C1CN(CC(=O)*)C(=O)N1; Nip(3R) = O=C([C@@H]1CCCN([*:1])C1)[*:2]; Oic = O=C(O)[C@@H]1C[C@@H]2CCCC[C@@H]2N1; βPro(3S) = O=C([C@H]1CCN([*:1])C1)[*:2]; Pen = CC(C)(S)[C@H](N)C(=O)O; β3hP = O=C(O)C[C@@H]1CCCN1; NMeA = CN[C@@H](C)C(=O)O; Ahx = NCCCCCC(=O)O; Sar = CNCC(=O)O

T1: recombinant rat MASP1 active protease (amino acids 302-704, C-terminal His Tag) (rat, UniProt Q8CHN8 302-704)
T1 sequence: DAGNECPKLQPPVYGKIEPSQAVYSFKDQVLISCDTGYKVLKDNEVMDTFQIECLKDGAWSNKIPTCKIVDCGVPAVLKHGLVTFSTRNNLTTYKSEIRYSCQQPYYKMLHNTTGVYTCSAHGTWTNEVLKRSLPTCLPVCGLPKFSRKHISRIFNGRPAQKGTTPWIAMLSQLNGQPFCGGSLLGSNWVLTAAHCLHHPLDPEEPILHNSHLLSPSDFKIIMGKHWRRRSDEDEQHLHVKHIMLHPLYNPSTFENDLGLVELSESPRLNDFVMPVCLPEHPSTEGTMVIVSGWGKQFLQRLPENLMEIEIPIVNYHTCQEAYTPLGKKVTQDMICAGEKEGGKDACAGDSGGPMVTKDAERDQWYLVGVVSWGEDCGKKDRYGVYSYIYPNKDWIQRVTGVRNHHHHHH


Columns and labels:
[1] = target: T1, recombinant rat MASP1 active protease …; assay: cell-based or functional assay
[2] = target: recombinant rat MASP2 active protease (amino acids 296-685, C-terminal His Tag) (rat, UniProt Q9JJS8 296-685); assay: cell-based or functional assay
Sequence of recombinant rat MASP2 active protease (amino acids 296-685, C-terminal His Tag) (Q9JJS8 other isoform, or with tags, fused parts or gaps limits assumed): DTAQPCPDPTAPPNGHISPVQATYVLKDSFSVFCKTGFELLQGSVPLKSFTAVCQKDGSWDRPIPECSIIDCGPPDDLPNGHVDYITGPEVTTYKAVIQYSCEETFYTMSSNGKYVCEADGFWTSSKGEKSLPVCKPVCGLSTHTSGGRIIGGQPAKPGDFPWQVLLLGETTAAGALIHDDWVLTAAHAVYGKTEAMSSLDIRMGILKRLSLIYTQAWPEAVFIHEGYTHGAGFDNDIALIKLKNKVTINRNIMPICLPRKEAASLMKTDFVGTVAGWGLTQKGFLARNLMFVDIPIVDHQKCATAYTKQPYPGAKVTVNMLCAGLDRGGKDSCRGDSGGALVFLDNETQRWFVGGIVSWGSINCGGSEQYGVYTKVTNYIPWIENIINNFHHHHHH

Row | rat MASP1 IC50 [1] | rat MASP2 IC50 [2] | Binder
1 | 127 nM | 79 nM | [Sar]ICSRSLP[Oic]I[Pen]IPN-OH (disulfide 3-11; N-terminus assumed; SMILES CC[C@H](C)[C@H](NC(=O)CNC)C(=O)N[C@H]1CSSC(C)(C)[C@@H](C(=O)N[C@H](C(=O)N2CCC[C@H]2C(=O)N[C@@H](CC(N)=O)C(=O)O)[C@@H](C)CC)NC(=O)[C@H]([C@@H](C)CC)NC(=O)[C@@H]2C[C@@H]3CCCC[C@@H]3N2C(=O)[C@@H]2CCCN2C(=O)[C@H](CC(C)C)NC(=O)[C@H](CO)NC(=O)[C@H](CCCNC(=N)N)NC(=O)[C@H](CO)NC1=O) [Example 454: ((N-Me)G)-IC+SRSLP-(Oic)-I-(Pen)+IPN-OH]
2 | 210 nM | 69 nM | [X11]ICSRSLP[Oic]I[Pen]I-OH (disulfide 3-11; N-terminus assumed; SMILES CC[C@H](C)[C@H](NC(=O)[C@H]1NC(=O)[C@H]([C@@H](C)CC)NC(=O)[C@@H]2C[C@@H]3CCCC[C@@H]3N2C(=O)[C@@H]2CCCN2C(=O)[C@H](CC(C)C)NC(=O)[C@H](CO)NC(=O)[C@H](CCCNC(=N)N)NC(=O)[C@H](CO)NC(=O)[C@@H](NC(=O)[C@@H](NC(=O)[C@H]2CCCNC2)[C@@H](C)CC)CSSC1(C)C)C(=O)O) [Example 460: ((S)-Piperidine-3-carboxylic acid)-IC+SRSLP-(Oic)-I-(Pen)+I-OH]
3 | 190 nM | 100 nM | [Sar]ICSRSLP[Oic]I[Pen]IPDK-OH (disulfide 3-11; N-terminus assumed; SMILES CC[C@H](C)[C@H](NC(=O)CNC)C(=O)N[C@H]1CSSC(C)(C)[C@@H](C(=O)N[C@H](C(=O)N2CCC[C@H]2C(=O)N[C@@H](CC(=O)O)C(=O)N[C@@H](CCCCN)C(=O)O)[C@@H](C)CC)NC(=O)[C@H]([C@@H](C)CC)NC(=O)[C@@H]2C[C@@H]3CCCC[C@@H]3N2C(=O)[C@@H]2CCCN2C(=O)[C@H](CC(C)C)NC(=O)[C@H](CO)NC(=O)[C@H](CCCNC(=N)N)NC(=O)[C@H](CO)NC1=O) [Example 463: ((N-Me)G)-IC+SRSLP-(Oic)-I-(Pen)+IPDK-OH]
4 | 46 nM | 46 nM | [Sar]ICSRSLP[Oic]I[Pen]IP[X6]-OH (disulfide 3-11; N-terminus assumed; SMILES CC[C@H](C)[C@H](NC(=O)CNC)C(=O)N[C@H]1CSSC(C)(C)[C@@H](C(=O)N[C@H](C(=O)N2CCC[C@H]2C(=O)N2CCC[C@@H](CC(=O)O)C2)[C@@H](C)CC)NC(=O)[C@H]([C@@H](C)CC)NC(=O)[C@@H]2C[C@@H]3CCCC[C@@H]3N2C(=O)[C@@H]2CCCN2C(=O)[C@H](CC(C)C)NC(=O)[C@H](CO)NC(=O)[C@H](CCCNC(=N)N)NC(=O)[C@H](CO)NC1=O) [Example 451: ((N-Me)G)-IC+SRSLP-(Oic)-I-(Pen)+IP-((S)-(1-Piperidin-3-yl)-acetic acid)-OH]
5 | 39 nM | 30 nM | [Sar]ICSRSLP[Oic]I[Pen]IP[βPro(3S)]-OH (disulfide 3-11; N-terminus assumed; SMILES CC[C@H](C)[C@H](NC(=O)CNC)C(=O)N[C@H]1CSSC(C)(C)[C@@H](C(=O)N[C@H](C(=O)N2CCC[C@H]2C(=O)N2CC[C@H](C(=O)O)C2)[C@@H](C)CC)NC(=O)[C@H]([C@@H](C)CC)NC(=O)[C@@H]2C[C@@H]3CCCC[C@@H]3N2C(=O)[C@@H]2CCCN2C(=O)[C@H](CC(C)C)NC(=O)[C@H](CO)NC(=O)[C@H](CCCNC(=N)N)NC(=O)[C@H](CO)NC1=O) [Example 456: ((N-Me)G)-IC+SRSLP-(Oic)-I-(Pen)+IP-((S)-Pyrrolidine-3-carboxylic acid)-OH]
6 | 250 nM | 100 nM | AICSRSLP[Oic]I[Pen]IP[βDap]-OH (disulfide 3-11; also: Dap at position 14 joined through its 3-amino group) [Example 458: AIC+SRSLP-(Oic)-I-(Pen)+IP-(*Dap)-OH]
7 | 41 nM | 32 nM | [Sar]ICSRSLP[Oic]I[Pen]IP[β3hP]-OH (disulfide 3-11; N-terminus assumed; SMILES CC[C@H](C)[C@H](NC(=O)CNC)C(=O)N[C@H]1CSSC(C)(C)[C@@H](C(=O)N[C@H](C(=O)N2CCC[C@H]2C(=O)N2CCC[C@H]2CC(=O)O)[C@@H](C)CC)NC(=O)[C@H]([C@@H](C)CC)NC(=O)[C@@H]2C[C@@H]3CCCC[C@@H]3N2C(=O)[C@@H]2CCCN2C(=O)[C@H](CC(C)C)NC(=O)[C@H](CO)NC(=O)[C@H](CCCNC(=N)N)NC(=O)[C@H](CO)NC1=O) [Example 455: ((N-Me)G)-IC+SRSLP-(Oic)-I-(Pen)+IP-(beta-homo-P)-OH]
8 | 180 nM | 51 nM | [Nip(3R)]ICSRSLP[Oic]I[Pen]I-OH (disulfide 3-11; N-terminus assumed; SMILES CC[C@H](C)[C@H](NC(=O)[C@H]1NC(=O)[C@H]([C@@H](C)CC)NC(=O)[C@@H]2C[C@@H]3CCCC[C@@H]3N2C(=O)[C@@H]2CCCN2C(=O)[C@H](CC(C)C)NC(=O)[C@H](CO)NC(=O)[C@H](CCCNC(=N)N)NC(=O)[C@H](CO)NC(=O)[C@@H](NC(=O)[C@@H](NC(=O)[C@@H]2CCCNC2)[C@@H](C)CC)CSSC1(C)C)C(=O)O) [Example 459: ((R)-Piperidine-3-carboxylic acid)-IC+SRSLP-(Oic)-I-(Pen)+I-OH]
9 | 94 nM | 120 nM | [Sar]ICSRSLP[Oic]I[Pen]IPGD-OH (disulfide 3-11; N-terminus assumed; SMILES CC[C@H](C)[C@H](NC(=O)CNC)C(=O)N[C@H]1CSSC(C)(C)[C@@H](C(=O)N[C@H](C(=O)N2CCC[C@H]2C(=O)NCC(=O)N[C@@H](CC(=O)O)C(=O)O)[C@@H](C)CC)NC(=O)[C@H]([C@@H](C)CC)NC(=O)[C@@H]2C[C@@H]3CCCC[C@@H]3N2C(=O)[C@@H]2CCCN2C(=O)[C@H](CC(C)C)NC(=O)[C@H](CO)NC(=O)[C@H](CCCNC(=N)N)NC(=O)[C@H](CO)NC1=O) [Example 464: ((N-Me)G)-IC+SRSLP-(Oic)-I-(Pen)+IPGD-OH]
10 | 38 nM | 32 nM | [Sar]ICSRSLP[Oic]I[Pen]IP[X9]-OH (disulfide 3-11; N-terminus assumed; SMILES CC[C@H](C)[C@H](NC(=O)CNC)C(=O)N[C@H]1CSSC(C)(C)[C@@H](C(=O)N[C@H](C(=O)N2CCC[C@H]2C(=O)N2CCC[C@H]2CCC(=O)O)[C@@H](C)CC)NC(=O)[C@H]([C@@H](C)CC)NC(=O)[C@@H]2C[C@@H]3CCCC[C@@H]3N2C(=O)[C@@H]2CCCN2C(=O)[C@H](CC(C)C)NC(=O)[C@H](CO)NC(=O)[C@H](CCCNC(=N)N)NC(=O)[C@H](CO)NC1=O) [Example 453: ((N-Me)G)-IC+SRSLP-(Oic)-I-(Pen)+IP-((S)-3-(1-Pyrrolidine-2-yl)-propionic acid)-OH]
11 | 17.6 nM | 72 nM | [Sar]ICSRSLP[Oic]I[Pen]IPDD-OH (disulfide 3-11; N-terminus assumed; SMILES CC[C@H](C)[C@H](NC(=O)CNC)C(=O)N[C@H]1CSSC(C)(C)[C@@H](C(=O)N[C@H](C(=O)N2CCC[C@H]2C(=O)N[C@@H](CC(=O)O)C(=O)N[C@@H](CC(=O)O)C(=O)O)[C@@H](C)CC)NC(=O)[C@H]([C@@H](C)CC)NC(=O)[C@@H]2C[C@@H]3CCCC[C@@H]3N2C(=O)[C@@H]2CCCN2C(=O)[C@H](CC(C)C)NC(=O)[C@H](CO)NC(=O)[C@H](CCCNC(=N)N)NC(=O)[C@H](CO)NC1=O) [Example 466: ((N-Me)G)-IC+SRSLP-(Oic)-I-(Pen)+IPDD-OH]
12 | 72 nM | 140 nM | [Sar]ICSRSLP[Oic]I[Pen]IPD[Ahx]-OH (disulfide 3-11; N-terminus assumed; SMILES CC[C@H](C)[C@H](NC(=O)CNC)C(=O)N[C@H]1CSSC(C)(C)[C@@H](C(=O)N[C@H](C(=O)N2CCC[C@H]2C(=O)N[C@@H](CC(=O)O)C(=O)NCCCCCC(=O)O)[C@@H](C)CC)NC(=O)[C@H]([C@@H](C)CC)NC(=O)[C@@H]2C[C@@H]3CCCC[C@@H]3N2C(=O)[C@@H]2CCCN2C(=O)[C@H](CC(C)C)NC(=O)[C@H](CO)NC(=O)[C@H](CCCNC(=N)N)NC(=O)[C@H](CO)NC1=O) [Example 465: ((N-Me)G)-IC+SRSLP-(Oic)-I-(Pen)+IPD-(Ahx)-OH]
13 | 160 nM | 150 nM | [NMeA]ICSRSLP[Oic]I[Pen]IP[(N-Benzyl)D]-NH2 (disulfide 3-11) [Example 462: ((N-Me)A)-IC+SRSLP-(Oic)-I-(Pen)+IP-((N-Benzyl)D)-NH2]
14 | 20 nM | 5 nM | X14-ICSRSLP[Oic]I[Pen]IPD-OH (disulfide 2-10; SMILES CC[C@H](C)[C@H](NC(=O)CN1CC(=O)NC1=O)C(=O)N[C@H]1CSSC(C)(C)[C@@H](C(=O)N[C@H](C(=O)N2CCC[C@H]2C(=O)N[C@@H](CC(=O)O)C(=O)O)[C@@H](C)CC)NC(=O)[C@H]([C@@H](C)CC)NC(=O)[C@@H]2C[C@@H]3CCCC[C@@H]3N2C(=O)[C@@H]2CCCN2C(=O)[C@H](CC(C)C)NC(=O)[C@H](CO)NC(=O)[C@H](CCCNC(=N)N)NC(=O)[C@H](CO)NC1=O) [Example 457: ((2,4-dioxoimidazolidin-1-yl)acetic acid)-IC+SRSLP-(Oic)-I-(Pen)+IPD-OH]
15 | 36 nM | 37 nM | [Sar]ICSRSLP[Oic]I[Pen]IP[X4]-OH (disulfide 3-11; N-terminus assumed; SMILES CC[C@H](C)[C@H](NC(=O)CNC)C(=O)N[C@H]1CSSC(C)(C)[C@@H](C(=O)N[C@H](C(=O)N2CCC[C@H]2C(=O)N[C@@H]2CC[C@H](C(=O)O)C2)[C@@H](C)CC)NC(=O)[C@H]([C@@H](C)CC)NC(=O)[C@@H]2C[C@@H]3CCCC[C@@H]3N2C(=O)[C@@H]2CCCN2C(=O)[C@H](CC(C)C)NC(=O)[C@H](CO)NC(=O)[C@H](CCCNC(=N)N)NC(=O)[C@H](CO)NC1=O) [Example 452: ((N-Me)G)-IC+SRSLP-(Oic)-I-(Pen)+IP-((1S,3R)-3-(Amino)cyclopentanecarboxylic acid)-OH]
